Measurements: PMC7889650

Target: Nle-substituted 187-bp NCP (Xenopus laevis)
Assay: cryo-EM structure

stoichiometry N: 1 NSD2 per NCP
Substance: NSD2C-E1099K/T1150A (from UniProt O96028 661-1365) (domain or fragment)
